A value given as a limit tells only on which side of the number the result lay.

One assay deals with human CD4 on cells (human, UniProt P01730 26-458). In words: cell-based or functional assay.
The target in a further assay is CCR5 (UniProt P51681 1-352, limits assumed). The experiment in a line: cell-based or functional assay.
A further assay concerns the target T1, CXCR3 (UniProt P49682 1-368, limits assumed).
T1 construct: whole, on cells
T1 sequence (looked up): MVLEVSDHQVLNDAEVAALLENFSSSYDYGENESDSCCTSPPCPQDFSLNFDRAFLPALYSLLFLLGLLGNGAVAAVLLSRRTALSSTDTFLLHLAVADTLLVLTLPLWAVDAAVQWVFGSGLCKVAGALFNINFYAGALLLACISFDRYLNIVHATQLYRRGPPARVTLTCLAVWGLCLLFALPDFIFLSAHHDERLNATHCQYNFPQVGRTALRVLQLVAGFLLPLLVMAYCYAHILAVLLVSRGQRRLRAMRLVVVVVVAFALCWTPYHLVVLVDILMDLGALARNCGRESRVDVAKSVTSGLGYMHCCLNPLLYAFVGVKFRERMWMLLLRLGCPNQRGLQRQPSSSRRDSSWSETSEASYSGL
The experiment in a line: total binding of [125I]-238D2 to membranes of HEK293T cells expressing CXCR4 or CXCR3.

Sequence of CCR5 (P51681 whole entry): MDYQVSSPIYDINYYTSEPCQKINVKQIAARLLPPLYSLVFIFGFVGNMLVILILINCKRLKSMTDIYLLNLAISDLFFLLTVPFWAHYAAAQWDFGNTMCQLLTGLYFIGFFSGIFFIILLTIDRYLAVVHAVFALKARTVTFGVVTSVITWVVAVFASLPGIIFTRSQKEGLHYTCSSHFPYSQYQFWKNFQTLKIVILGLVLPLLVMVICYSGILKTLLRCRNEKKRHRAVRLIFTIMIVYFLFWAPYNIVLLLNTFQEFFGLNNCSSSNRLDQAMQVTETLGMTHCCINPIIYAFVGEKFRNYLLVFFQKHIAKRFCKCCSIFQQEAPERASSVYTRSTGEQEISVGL

B1: Nanobody 03F11 (VHH)
VHH: EVQLVESGGGSVQPGGSLTLSCGTSGRTFNVMGWFRQAPGKEREFVAAVRWSSTGIYYTQYADSVKSRFTISRDNAKNTVYLEMNSLKPEDTAVYYCAADTYNSNPARWDGYDFRGQGTQVTVSS
For the molecule B1, in the assay with human CD4 on cells, the “anti-HIV activity, NL4.3 on MT4 cells, MTS method, IC50” value was found to be 85 nM and the “anti-HIV activity, NL4.3 on MT4 cells, p24 levels, IC50” value was determined as 15 nM.

B2: Nanobody 238D2 (VHH)
VHH: EVQLVESGGGLVQTGGSLRLSCAASGFTFSSYAMSWVRQAPGKGLEWVSGIKSSGDSTRYAGSVKGRFTISRDNAKNMLYLQMYSLKPEDTAVYYCAKSRVSRTGLYTYDNRGQGTQVTVSS
modifications: In some assays the Nanobody was 125I-labelled (Iodo-gen, on tyrosine); the letters do not carry this.
notes: Monovalent llama VHH against human CXCR4, purified; tags not described; also called 238C1
Regarding B2, in the assay with CCR5, the “IC50, HIV-1 BaL, PBMC donor 1” value is above 1 µg/mL; the “IC50, HIV-1 BaL, PBMC donor 2” value is above 1 µg/mL; the “nM IC50, HIV-1 BAL, PBMC donor 1” value was above 67 nM; the “nM IC50, HIV-1 BAL, PBMC donor 2” value is above 67 nM. For the same molecule, the binding result in the assay with CXCR3 is given as “no binding (tested: 3 nM radioligand)”.
